The supplement of paper PMC10567573

B1: CDKN1A (parent)
chain: GRKRRQTSMTDFYHSKRRLIFSKR
B2: TRIM9 (parent)
chain: CVQCKMPVCYQCLEEGKHSSHEVK

Variants of: B1
Assay: protein stability index of a GFP-peptide fusion (GPS, HEK-293T) (PSI 1-6); higher = more stable
Settings: c terminus: a fixed tail appended
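Note: lentivirally expressed fusions sorted by FACS into six bins by GFP to DsRed ratio, PSI derived from sequencing read proportions per bin multiplied by bin number.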

Variant	protein stability index
K23P	2.48
K23Q	1.58
K23L	1.96
K23W	2.87
K23D	2.95
K23T	3.3
K23F	3.02
K23Y	2.74
K23S	2.78
K23A	3.19
K23N	2.3
K16G	2.62
K16C	3.39
K16V	3.12
K16R	4.25
K16W	3.97
K16P	2.07
K16E	3.76
K16I	3.82
K16Q	2.83
K16Y	2.93
K16N	2.99
K16T	4.09
K16F	2.28
K16A	3.51

Variant	protein stability index
K16H	2.96
D11W	2.21
D11L	2.29
D11I	2.12
D11S	3.06
D11A	2.37
D11Q	2.89
D11Y	2.07
D11R	3.33
D11H	1.82
D11P	3.34
D11T	2.2
D11N	2.4
D11K	2.77
D11F	2.51
D11M	3.13
D11V	2.44
Y13S	3.57
Y13K	2.66
Y13F	3.27
Y13R	3.93
Y13M	2.33
Y13V	2.79
Y13C	3.2
Y13Q	3.92

Variant	protein stability index
Y13T	3.69
Y13G	3.02
Y13W	2.7
Y13E	3.73
Y13N	3.25
Y13H	3.22
Y13D	4.24
Y13P	3.53
F12V	3.38
F12P	3.34
F12R	2.73
F12Q	2.46
F12C	2.3
F12E	3.15
F12D	3.14
F12A	3.27
F12S	2.42
F12T	2.78
F12G	3.04
F12H	1.61
F12K	2.36
F12Y	2.17
T7M	2.6
T7Y	2.65
T7Q	2.12

Variant	protein stability index
T7S	2.71
T7N	2.48
T7W	2.36
R17W	2.28
R17V	4.34
R17I	2.97
R17K	3.87
R17H	2.64
R17M	3.08
R17F	2.19
R17D	3.57
R17Q	3.46
R17P	2.62
R17E	3.75
R17G	2.04
R17S	3.19
R17C	2.76
R17T	3.02
R17A	2.13
R17N	3.38
F21N	3.63
F21G	3.13
F21E	2.62
F21D	3.79
F21W	3.45

Variant	protein stability index
F21K	3.14
F21Y	3.38
F21A	2.4
F21P	1.99
F21M	3.48
F21L	3.08
F21H	3
F21S	3.66
F21C	3.58
F21I	3.27
F21T	3.22
S15C	2.1
S15P	2.59
S15F	3.02
S15W	3.71
S15A	2.47
S15R	3.43
S15M	1.92
S15L	1.78
S15Y	3.78
S15N	3.16
S15T	2.44
S8K	3.4
S8I	2.6
S8Q	2.69

Variant	protein stability index
S8Y	2.35
S8M	2.68
S8H	4.01
S8E	2.74
S8R	2.72
S8P	1.76
S8F	3.4
S8T	3.3
S8C	3.59
S8D	2.46
S8A	2.41
S8L	3.4
S22D	2.17
S22A	3.99
S22M	4.04
S22I	2.53
S22Q	3.09
S22N	2.57
S22T	2.87
S22C	2.35
S22R	2.79
R18N	2.76
R18K	2.64
R18Q	1.47
R18C	2.37

Variant	protein stability index
R18H	2.15
R18L	3.13
R18T	2.45
R18A	3.35
R18G	2.8
R18P	2.11
R18F	2.78
R18V	2.93
R18S	2.77
R18M	1.86
R18D	2.48
L19Q	3.85
L19W	3.25
L19S	3.31
L19K	3.86
L19H	3.78
L19C	2.81
L19P	2.14
L19M	3.98
L19G	2.71
L19F	2.88
L19I	2.65
L19Y	3.91
L19R	2.77
L19N	3

Variant	protein stability index
M9V	2.96
M9P	2.69
M9S	3.08
M9W	3.37
M9T	1.91
M9D	4.34
M9I	3.23
M9R	3.05
M9H	3.21
M9C	2.34
M9G	3.98
M9F	2.6
M9K	2.62
M9N	3.29
M9L	2.98
M9A	2.66
M9E	2.27
I20T	2.86
I20F	3.1
I20S	2.5
I20C	2.93
I20W	2.3
I20D	2.84
I20A	3.46
I20K	2.99

Variant	protein stability index
I20R	2.15
I20N	3.51
I20M	2.86
H14S	2.34
H14C	2.43
H14L	3.02
H14M	3.3
H14Q	3.39
H14N	3.62
H14W	2.08
H14Y	4
H14P	4.57
H14I	2.72
H14E	3.45
H14R	3.52
H14F	2.96
R24S	3.62
R24I	2.91
R24W	3.26
R24C	3.93
R24V	2
R24A	3.13
R24Y	2.91
R24M	2.17
R24K	2.24

Variant	protein stability index
R24G	3.52
R24T	2.21
R24H	2.4
R24D	3.29
R24L	3.19
R24F	2.24
R24N	3.1
R24Q	3.2
R24P	3.22
R24E	2.67
T10W	2.16
T10L	2.45
T10P	2.48
T10C	3.68
T10K	2.52
T10A	1.75
T10M	2.38
T10H	2.93
T10R	2.39
T10S	2.54
T10F	3.46
T10G	2.85
T10Y	2.53

Variants of: B2
Assay: as above
Settings: c terminus: a fixed tail appended

Variant	protein stability index
V2H	4.63
V2Y	3.71
V2A	3.97
V2M	3.67
V2T	3.85
V2G	3.6
V2E	3.92
V2P	4.18
V2C	3.98
V2S	4.25
V2F	3.51
V2L	3.5
V2Q	4.04
V2K	4.29
V2N	3.46
V2R	3.8
V2I	4.02
V2W	3.16
V2D	4.16
K5E	4.22
K5I	2.05
K5G	4.38

Variant	protein stability index
K5L	2.58
K5P	3.52
K5Q	2.83
K5R	4.15
K5A	3.4
K5F	2.52
K5H	3.8
K5C	3.84
K5N	4.04
K5D	3.75
K5M	3.87
C1R	3.58
C1W	2.98
C1V	3.23
C1N	2.79
C1G	2.88
C1D	3.77
C1E	3.95
C1I	3.08
C1T	3.75
C1L	3.27
C1F	2.58

Variant	protein stability index
C1Q	4.03
C1K	3.65
C1P	2.86
C1Y	1.74
C1M	2.93
C1H	4.52
C4D	4.01
C4S	3.23
C4E	3.38
C4Q	3.39
C4P	4.11
C4W	3.17
C4V	2.9
C4K	4.13
C4A	3.2
C4I	2.44
C4F	2.66
C4T	2.93
C4N	3.3
C4R	2.83
C4G	3.15
C4Y	3.86

Variant	protein stability index
C4H	3.62
C4L	3.68
C4M	3.37
Q3W	2.88
Q3G	3.73
Q3C	3.99
Q3R	4.22
Q3M	3.4
Q3E	3.82
Q3A	2.96
Q3F	3.1
Q3S	4.12
Q3I	3.6
Q3D	3.91
Q3H	4.52
Q3P	2.94
Q3Y	3.04
Q3K	3.73
Q3N	4.49
Q3T	3.56
